According to the DeepSol protein solubility set:

test: soluble on expression in E. coli; label from the status in PepcDB or PDB records

| Sequence | soluble on expression in E. coli |
| --- | --- |
| MNYHWSDHPDPNKWADCVHCGMCLEACPTYELTGHEQQSPRGRVHLIKSVAEGKLEVNEAFADPVFTCLDCRACETACPADVEVGGLIEEARGQIRQALPLSGWKLEHHHHHH | not soluble |
| MSYNSIRLPQDLPIYYKNFFPVKPFTKWLRYGQNNGDYFNRREFAFILADDVHIRYRSYNDEHAFFKALSSTNPEKLDIGAVYNHEPINNKRHTDYQAVERELVFDIDLTDYDPVRNCCKDATVCPKCWKFMVLAVKILDFQLEDMFDFKARMWVFSGRRGVHCWVGDKKARMLNNYQRSAIATRLNLFKKNGQCEVTEGRAKMTKVPPIVRDAFNVALKDGVFEKMIYDQGWLDKEDFITEYKFMSEVGRDDLRSLSETYKTPQERWNMIRGLFDDDYRKSLSPKDGLLDFKMQGRDRNYLLYFVLQRCYPRLDVNVSTGTNHLLKSPFCIHPKTGNVAVPLNVGKIEEFDVSKCPRIDHVVEELSSLLAERGNDENEDSKNRKFLAYKHGALAPYVENFEKFVSACIS | not soluble |
| MGSDKIHHHHHHMRKITLRSKLDGREIVFEENQNLFDIAREYQKYYRYKILAARVNNRIIELFRTPDRSGELEFLDLTDPDGLRIYQRGLVFLASLAVRKLNSEWRLKVLHSLGKGIYCEIYKGNELIVPDQNQVFAIKDKMRELVEKDLPIEKRTFYKDEAREILMKEGLVKTVNLFKYRKKRTVKLYHCDGFWAYFYGYLPPSTGRIDVFDVQPYNQGLVLVHPDPKTRELPVIHMPKLSQVFLEYARWLNVLELEYVSDLNDIIARGERHVADLMLLSEALHEKKISDIADEIAKDKRKRLILIAGPSSSGKTTFAKRLSLQLRVNGLKPVAISLDDYFVDREKTPRDENGNYDFDSIEALDIELFNRNLQDLLAGKEVVLPKFNFKTGKRMRGPTLKLEKDNIIIVEGIHGLNERLTASIPKEQKFKIYVSALTQLNIDDHNRVTTTDTRLIRRIVRDYKFRGHTAYDTLKMWPNVRKGEERNIFPFQEEADVMFNSALVYEIPVLRIFAEPLLVQVPEDVPEYSEALRLLKLLDFFLPITNIEDIPDKSILREFIGRSIFKY | not soluble |
| MFTQVKPYLSLPGFSCVLVNAGIVPPDLNQNFRVAFFNEKKSLNFYVLEKLFLNAEVKLLKPQKETEETFDFIISEIPFSHAFEEERKGLSNSIRNSLKEKGVLFIEYDSKPGSTPKEEFIRFIRLFLKKVESEQVKTDLEVILSRPSYFWARNNETRLYFLEKARRFNDDFVKREITNENYRIFSHDEVHELLKDCMLSFAGRANLEMNDPEIVLFPSHLATLARCGKNNLCKEAVIDFVLDTKQRRDIYAKFPEVDQEKAIESVADKFFLIPRQSPKNLRREVLLPGGHKLSLSEPVYDFFFVNSEEPRRLSEHPLYEKSKKTAWKAFYRVLSTGEFILCVNDDLLEDAKDELPESFELTPPNDEILKVSFENLEDTYLVSNATKGPAVHLNTLEVILLWFASEKGKTKAKEEAVKFLKSREEFIKLGTNIVKAREVKEEDINKTAEKLFKGRKAFNLNRLKIIRER | not soluble |
| SLTTLKTMTRVQLGAMGEALAVDYLTSMGLRILNRNWRCRYGELDVIACDAATRTVVFVEVKTRTGDGYGGLAHAVTERKVRRLRRLAGLWLADQEERWAAVRIDVIGVRVGPKNSGRTPELTHLQGIG | soluble |
| MGEQDPSDRLRGDQLKEPNQNGKGSFSQFSSSVRAMVRIRMKYQAIKKRRMEIASATPQIFTSPRSTSPKVFTFDNLHEPVNSNPASPRKRKKKRKGRVLYPTSSLRAVPTKESSRAKNCLYLLCIIVFLQVYNAIENLDDHVLKYDLEGLEKTLKREVFGQQEVAEGLLGHLQDYLSTYVHNKPLVLSFHGPTGVGKSHVGRLLAQHFRSVVGEELVMQYFVLHHCPTDDDIPVCTKSLESHISEMVSQGEEEEKIPVFIFDEVEHMPRQLMDTLRELIQPQNSNKYLNAIYILISNLGHEDITKFVLHNSSIAISGRLSLTQELTPWLRNYLQEHHGLFLDAEYLPFMLLEKSHVMDCFIDEMSREGFYPDRSHVERLAEELSYYIVGEREFSHTGCRQVVAKVNLL | soluble |
| GPLQVSNARLLFPISMPEDEGVVRLVVNNTDESDLQVAVVSLPSFVSLDDRAFRLQAREPRELNLSLAVPRNMPPGMKDEPLVLEVTSPETGKKAVDSVMVSLPLVDNFPALTAAQTGVMELSTYLDMGQLDGETTKAAIEIRNVGAGPLRLHSVTTRNPALTAVPDRTEIKPGGSTLLRIAVDPQVMKAEGWQSIAADISIICNDPQAPLRRIKVKAEL | soluble |
| MKVLGLIVEYNPFHNGHLYHLEESKKISGADFVVCVMSGNFIQRGEPAIVNKWARTKMALSAGADLVIELPLSCAMASAEYFASGAVRILNDIGIVDYICFGSEHGDVKTLDYIAQILVEEPESYKSFLKEELDNGLSYPAARESALKKYTAHSINIPQIISSSNNILGIEYLKALRRIKSSIIPLTIKRINNDYNTENITGSISSASSIRKYISTSNSTSFDDVLAMTMPKTSVDILFEEFSAGRGPVFKEDFYPVVTSLIRKMTPEQIRNFAYVSEGLENRIKSAADTAGTYEELVESICTRRYTKTRVQRILMGILMGVTSKDLDMLSRFDSPQYARILGFNSKGKQLLSQIKKKSSIPLVLKLSDFIKSCDPVLKRKLELEILATDLYVMCYKNPAFRKAGQEFTQNIIIM | soluble |
| MQIAREETRKSGANILYVINHQRPSIFGSSMHQIGGLMLLSDSVVRNEGEGYPDSLLYDSGQRGKIGSRIKAPVHDLSFHFGPSTITNRTKGLSYSEQQLEKKLSNGLSFVLQYKCHPKGNLYGFGLIASRYEADITKKIEYQGIGFANRLDYIAPLFSMSTALSERWFLGMSFGKDGSQSVRLHYRFARLPVDRDLSAVGCVRKKSPHTDDCRLTVSPLYRPS | not soluble |
| TYDGKVESVVLGFATEVPEPWVTEKLSITEEELVYKIIRLRIIEDVPSIIEYTWMPVALIPNLTMKELKVSIYQYISEQLHQKIQSARVSISGIRPSPLEKKYLNLTDNDFLMRAEQIAYLGNGHIFEYSIANHIPSEFTFETVLIAEK | not soluble |
| LTPIVGPSNFRVQVAADMDFSQVEETREILDNAPVVRNEHTIQNNSIDQIALGVPGSLSNQPPVTGEAATNDSQNTNARSEVNRQYAVGSSVRRTQYQQGQIEKLSVSVLLNSKASPDGVAWSDADKAQISTMITDAVGISAARGDSLSLMSFNF | not soluble |
| MGSDKIHHHHHHMKRAVVVFSGGQDSTTCLIQALQDYDDVHCITFDYGQRHRAEIEVAQELSQKLGAAAHKVLDVGLLNELATSSLTRDSIPVPDYDANAQGIPNTFVPGRNILFLTLASIYAYQVGAEAVITGVCETDFSGYPDCRDEFVKALNQAIVLGIARDIRFETPLMWLNKAETWALADYYQQLDTVRYHTLTCYNGIKGDGCGQCAACHLRANGLAQYQKDAATVMASLKQKVGLR | not soluble |
| MIRVMATGVFDILHLGHIHYLKESKKLGDELVVVVARDSTARNNGKIPIFDENSRLALISELKVVDRAILGHEGDMMKTVIEVKPDIITLGYDQKFDEAELQSKINKLGITVKIVRISKYDGQLNSSSSVRKKIMELIGERY | not soluble |
| MGSDKIHHHHHHMSSQNALYMLIDERLRRDELKLPGLPETAEQVRNAAMDPDCNLHDLCHIIQQDTALTARLIRLANSAYLGGRNKAESLMQALTRIGMRRIRTLALAMAMEQVFKPDNDIVQMFSQQFIVESREIAAAAVVITEDLQHRGIGHRLHQDVALLAGMVSRIGVAPILHMANEFEDSFANPSFIKECITQFSSTLGSNILSYWQFTPNLVQVPLCYYNGRMTLNDAITVNYCDIVHLAGLLTGNVKPNKDSVTLVEYQMLGVIKTDDFWQQESVQKSYRQMLDLLS | not soluble |
| MAAELVQLNPGQQVERWSIEKKLGEGGFGAVYRVFDATGKYAMKVEGANEQIQVLKLEVSVLNKLSKRGNRHFCKIEDKGRFGNFNYVVMTLVGKSLQDLNKAGVGGHMSMGCSIGIGIQSLEALEDLHNIGYLHRDVKPGNYTIGRPELNEIRKVYILDFGMCRKFTGNDGTIRKPRQAAGFRGTVKYAPISCHLQRELCRKDDLETWMYMQVELSHGTIPWQYISDMNQVGQAKQAIRNNLGSLFPPPCPHQFQDIMRMVDAMKYYDAPNYQAIYGMMRQAYGACGSNENAPYDWENGGPAAYLLH | not soluble |
| MAALIRNLGARAAVAALSAKHVVPAAGSTALRMASTTPVEPKKADKPTVRQPDAVARSHLSDFGRYVAECLPKYVQKVQLTAGDELEVLIAPEGVVPVLQFLKDHHQAQFTNLVDIAGVDVPCRKNRFEVVYNLLSLRYNSRIRVKTYTDELTPLDSACEVHKAANWYEREIWDMYGVFFANHPDLRRILTDYGFEGHPQRRDFPLSGYVELRYDDEKKRVVCEPLELAQEFRKFDLSAPWEQFPNFRNANPPAEVVPPQAPAKK | not soluble |
| MIDVKSIILIVLDGLGDRPGEILGYRTPLQAAYHPNMNRMASLGMTGLMHPISPGIRSGSDTSHMSLLGYDPRVYYQGRGPFEALGLHMDMKPGDLAFRANFATNRDGKIIDRRAGRINAGNDQLASAISIDIGNYKFRVKSGVEHRAALVVSGPNLSDKISDSDPHSEGKPPEPIRPLDPSADSTAKIMNEYLKRIREILRDHPVNVEREKNGQIPGNELLIRSAGKVPDIPSFQEKNGITGACVVGSPWLKGLCRLLGMAVIDVPGAAGTINSNYTGKIKTAIDASKRYDFVLVNIKATDVAGHDGDYELKRRVIEDIDIAMEPLLGQSDRIVVAITGDHSTPCSVKDHSGDPVPIVFYTDGIYSDDVKLFDEVSAMKGALRITTQDVLNILMEMAGRAEKFGSLEHHHHHH | soluble |
| SDSASQDINLNSPNKGVLSDFMTDVPVDPGVVHRTPVVEGLTEGEEEELRAELAKVEEEIVTLRQVLAAKERHCGELKRRLGLSTLGELKQNLSRSWHDVQVSTAYVKTSEKLGEWNEKVTQSDLYKKTQETLSQAGQKTSAALSTMGSAISRKLGDMSSYSIRHSISMPVMRNSATFKSFEDRVGTIKSKVVGGRENGSDNLPPSPGSGDQTLPDHAPF | soluble |
| MGHHHHHHSHFLSSSTYPEIHGFLHAKEQGKKSWKKIYFFLRRSGLYFSTKGTSKEPRHLQFFSEFGNSDIYVSLAGKKKHGAPTNYGFCFKPNKAGGPRDLKMLCAEEEQSRTCWVTAIRLLKYGMQLYQNYMHPYQGRSGCSSQSI | not soluble |
| MGSDKIHHHHHHMISQHVRKKTREYPNRFFDSSVWNDLALRRGDIVIASYAKAGTTWLQQIVAQLIFGGEPNIDVSAISPWVDGVYPDKATKLALLEAQSQRRFMKTHLPADALVTSPLARYLYIGRDGRDIALSLYDHQCAVSQDAQARVHANGGKSGKLRVVSPPGLPRDAYVAHWLEYDGAPFWPLWENVRSWWERREDANVLLLHYADLLDDLPGQIRLIAAFLGITVAQDRWDAIVAHCRFDYMRQHAARYVPQGTGLWREDGKAFFNQGRIGRWREVLPAELNTAYSRRAEAELGRDAAQWLAHGQTQTS | not soluble |
| MRFYNREKELARLMEIATLSEESAHLAVITGRRRVGKTELIRKFAEGRDDFLYFFVSKKKPRVLLDEFRDLLAARVPLLASASFGSFDDFFRALFEITKERPLFIVFDEFQNFQQVDPAVFSTLQDLWDRNKGTIKGTIVCIGSVQTLMREIFEGAKEPLFGRVTARLYVEPLIPDVVATILADHQVDAVRHLPFFFTLFGGIPKYYFLLDRYRLFGKTPAEIIRKFFCETDALLQNEGKDLLVEEFGKNYHLYFSILQVIAGGENQMARIADKSGINVNSISKYLDELTSYYQVIERRLPVTATRQEQKTGRYYLKDPLLRFWFRYIYRNQSLIEIGDEEGLLGKIQADLSTFMGWSFEELIRAMLLKRNDGTVVPFGFTRIGGFWTKRGDVEIDIVALNEEDGAIFFGECKLSGSRFSVADARRLKEKAKAVPWRTGDRREHFVLFCMDDLESDAEQALAAEGVGVVRLRQLLSVPLEHHHHHH | not soluble |
